Changes are numbered by the printed parent chain.
B1: SEQ ID NO:1 (protein, listed as Pseudomonas fluorescens)
chain: MADLYENPMGLMGFEFIEFASPTPGTLEPIFEIMGFTKVATHRSKNVHLYRQGEINLILNNEPNSIASYFAAEHGPSVCGMAFRVKDSQKAYNRALELGAQPIHIDTGPMELNLPAIKGIGGAPLYLIDRFGEGSSIYDIDFVYLEGVERNPVGAGLKVIDHLTHNVYRGRMVYWANFYEKLFNFREARYFDIKGEYTGLTSKAMSAPDGMIRIPLNEESSKGAGQIEEFLMQFNGEGIQHVAFLTDDLVKTWDALKKIGMRFMTAPPDTYYEMLEGRLPDHGEPVDQLQARGILLDGSSVEGDKRLLLQIFSETLMGPVFFEFIQRKGDDGFGEGNFKALFESIERDQVRRGVLTAD
modifications: 4-hydroxyphenylpyruvate dioxygenase (HPPD; Pseudomonas fluorescens) (1)..(358)
B2: SEQ ID NO: 69: mutant PfHPPD: 268A 270S 315R 335P 336H 337S 340V 344Q 345M (protein)
chain: B1 chain with P268A, T270S, T315R, E335P, G336H, N337S, A340V, S344Q, I345M
modifications: mutant HPPD polypeptide
notes: mutant PfHPPD: 268A 270S 315R 335P 336H 337S 340V 344Q 345M
B3: SEQ ID NO: 70: mutant PfHPPD: 213K 268A 270S 315Q 335P 336H 337S 340V 344Q 345M (protein)
chain: B1 chain with R213K, P268A, T270S, T315Q, E335P, G336H, N337S, A340V, S344Q, I345M
modifications: mutant HPPD polypeptide
notes: mutant PfHPPD: 213K 268A 270S 315Q 335P 336H 337S 340V 344Q 345M
B4: SEQ ID NO: 68: mutant PfHPPD: 268A 270S 315Q 335P 336H 337S 340V 344Q 345M (protein)
chain: B1 chain with P268A, T270S, T315Q, E335P, G336H, N337S, A340V, S344Q, I345M
modifications: mutant HPPD polypeptide
notes: mutant PfHPPD: 268A 270S 315Q 335P 336H 337S 340V 344Q 345M

What was measured:
[1] = test system: soybean shoots; experiment: selection of soybean shoots with tembotrione (greening/bleaching); format: in vivo; conditions: wild-type soybean shoots treated with tembotrione as selection marker
From the text: Soybean transformation was achieved by using methods well known in the art, such as the one described using the Agrobacterium tumefaciens mediated transformation soybean half-seed explants using essentially the method described by Paz et al. (2006), Plant cell Rep. 25:206. Transformants were identified by using the HPPD inhibitor herbicide “tembotrione” as selection marker. The appearance of green shoots was observed, and documented as an indicator of tolerance to the HPPD inhibitor herbicide tembotrione.

[2] = test system: HPPD polypeptides; experiment: coupled HPPD activity assay: turnover and residual turnover in crude extracts; format: biochemical, Pseudomonas fluorescens; conditions: FIG. 2
[3] = test system: HPPD polypeptides; experiment: as above; format: biochemical, Pseudomonas fluorescens; conditions: for turnover / residual turnover in the presence of Cmpd. 1 compared with a reference HPPD polypeptide, in words: comparison with the reference or parent polypeptide
[4] = test system: T0 soybean plants; experiment: greenhouse spray test, leaf area damage score; format: in vivo; conditions: transgenic soybean T0 events, five days after Cmpd. 1 at 300 g AI/ha; for leaf area damage score, 25th percentile: scale 0 (no damage) to 100 (complete bleaching); for leaf area damage score, 75th percentile / leaf area damage score, 90th percentile / leaf area damage score, Median: scale 0-100
From the text: Tolerant green shoots were transferred to rooting media or grafted. Rooted plantlets were transferred to the greenhouse after an acclimation period. Plants containing the transgene were then sprayed with HPPD inhibitor herbicides, as for example with mesotrione at a rate of 300-600 g AI/ha, or with Cmpd. 1 (2-chloro-3-(methylsulfanyl)-N-(1-methyl-1H-tetrazol-5-yl)-4-(trifluoromethyl)-benzamide) at a rate of 150 g-300 g AI/ha supplemented with ammonium sulfate and methyl ester rapeseed oil. Five to ten days after the application, the symptoms due to the application of the herbicide were evaluated and compared to the symptoms observed on wild-type plants under the same conditions. For example, T0 soybean plants having a “plant expression cassette”, which includes an HPPD inhibitor tolerant HPPD polypeptide of the present invention, were tested towards the tolerance of Cmpd. 1. Prior greenhouse trials with the transgenic plants, soybean transformants were routinely analyzed for the expression and presence of the transgenes using the ELISA protein detection method (see detailed description under item D and H). Only plants recovering in the selection media and having a detectable HPPD transgene protein expression were used for the herbicide tolerance analysis. A DeVries Tracker Sprayer was calibrated prior to each spraying. The chemical formulation used for Cmpd. 1 was supplemented with ammonium sulfate and methylated rape seed oil. Spray tests were conducted with a concentration, which equals to 300 grams AI per hectare (300 g AI/ha).
In greenhouse trials, independent T0 soybean events containing an exemplary mutant HPPD polypeptide were sprayed with the HPPD inhibitor herbicide Cmpd. 1 (2-chloro-3-(methylsulfanyl)-N-(1-methyl-1H-tetrazol-5-yl)-4-(trifluoromethyl)benzamide) at the rate of 300 grams AI/ha, supplemented with ammonium sulfate and methyl ester rapeseed oil. Five days after the application, the leaf damaged area due to the HPPD inhibitor herbicide is scored in a scale from 0 (no damage) to 100 (complete bleaching). Under those conditions, the wild-type plants were completely bleached and their damage scores were in the 95-100 range.
Table 5 presents the distribution of the HPPD inhibitor herbicide damage score data as percentile for exemplary mutant HPPD inhibitor herbicide tolerant polypeptides (SEQ ID NOs). The percentiles normalize ranks of the damage score from an individual plant in a population. […] The median is the 50th percentile. Half the values had higher damage scores; half had lower damage scores. The value of the 75th and 90th percentile is the damage score where 75% and 90% of the soybean events had lower damage scores, respectively. The difference between the 75th and 25th percentile is called the interquartile range and a marker to quantify scattering in the population. All constructs had only one single cassette insertion in the soybean genome.

Row | Molecule | effect on wild-type soybean shoots [1] | mode of inhibition by HPPD inhibitor herbicides (time-course of inhibition) [2] | Residual turnover ([3]; presence of 100 μM Cmpd. 1, high substrate concentration, changes in absorbance (OD) at 320 nm) | turnover / residual turnover in the presence of Cmpd. 1 compared with a reference HPPD polypeptide, in words [3] | leaf area damage score, 25th percentile [4] | leaf area damage score, 75th percentile [4] | leaf area damage score, 90th percentile [4] | leaf area damage score, Median [4]
1 | CS(=O)(=O)c1ccc(C(=O)C2C(=O)CCCC2=O)c(Cl)c1COCC(F)(F)F [tembotrione, 2-[2-chloro-4-(methylsulfonyl)-3-[(2,2,2,-trifluoroethoxy)methyl]benzoyl]-1,3-cyclohexanedione] | entirely bleached |  |  |  |  |  |  | 
2 | B1 |  | slow and tight binding inhibitor | 0.021 |  |  |  |  | 
3 | B2 |  |  |  | increase significantly the turnover and the residual turnover | 20.0 | 25.0 | 42.0 | 20.0
4 | B3 |  |  |  | increase significantly the turnover and the residual turnover | 10.0 | 25.0 | 35.0 | 15.0
5 | B4 |  |  |  | increase significantly the turnover and the residual turnover | 5.0 | 16.3 | 20.0 | 10.0
